For experiment [1], the target named is core APC (endogenous, HeLa) (human (endogenous in HeLa)). Put plainly: cell-based or functional assay.
The target in experiment [2] is T1, HA-CDH1, in vitro translated (UniProt Q9UM11 1-496).
T1 construct: CDH1/FZR1, generated by PCR and cloned into pcDNA3; also called in vitro translated CDH1; source: in vitro translated
Put plainly: pull-down; GST-ID2, with or without prior in vitro phosphorylation by CDK1-Cyclin B, incubated with APC immunopurified through FLAG-APC3 from HeLa cells and activated by in vitro translated HA-CDC20 or CDH1; western blot (Fig. 3h). To be noted: both partners purified. A general note: Immunoblotting shows a protein as a band on a membrane.

This note sets out measurements from article PMC9018835, “Regulated interaction of ID2 with the anaphase-promoting complex links progression through mitosis with reactivation of cell-type-specific transcription” (Nature Communications, 2022).

T1 sequence (Q9UM11 whole entry): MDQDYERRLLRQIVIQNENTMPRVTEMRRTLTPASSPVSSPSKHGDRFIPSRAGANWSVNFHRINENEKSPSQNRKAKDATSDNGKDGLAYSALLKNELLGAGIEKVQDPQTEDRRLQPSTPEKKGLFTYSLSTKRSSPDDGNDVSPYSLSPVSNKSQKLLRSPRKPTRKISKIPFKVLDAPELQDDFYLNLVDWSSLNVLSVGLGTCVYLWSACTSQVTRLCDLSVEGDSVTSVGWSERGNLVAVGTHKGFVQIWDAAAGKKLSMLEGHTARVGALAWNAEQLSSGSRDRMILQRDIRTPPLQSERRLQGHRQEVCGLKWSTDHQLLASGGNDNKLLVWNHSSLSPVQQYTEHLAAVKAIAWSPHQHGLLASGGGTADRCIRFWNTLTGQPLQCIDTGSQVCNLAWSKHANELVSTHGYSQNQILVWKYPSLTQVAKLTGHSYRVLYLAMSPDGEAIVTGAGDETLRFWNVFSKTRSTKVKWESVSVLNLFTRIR

B1: FLAG-ID2-S5D (natural protein, UniProt Q02363 1-134, looked up)
chain: MKAFDPVRSVRKNSLSDHSLGISRSKTPVDDPMSLLYNMNDCYSKLKELVPSIPQNKKVSKMEILQHVIDYILDLQIALDSHPTIVSLHHQRPGQNQASRTPLTTLNTDISILSLQASEFPSELMSNDSKALCG
In the case of B1, the “half-life of ID2-S5D in transiently transfected HeLa cells treated with cycloheximide, against ID2 wild type” value in experiment [1] is roughly 5 fold.

B2: phospho-S5-GST-ID2 (natural protein, UniProt Q02363 1-134, looked up)
chain: MKAFSPVRSVRKNSLSDHSLGISRSKTPVDDPMSLLYNMNDCYSKLKELVPSIPQNKKVSKMEILQHVIDYILDLQIALDSHPTIVSLHHQRPGQNQASRTPLTTLNTDISILSLQASEFPSELMSNDSKALCG
modifications: phosphoserine at 5 (in vitro phosphorylation by Cyclin B-CDK1)
notes: also called CDK1 phosphorylated GST-ID2; source: E. coli BL21(DE3), GST fusion; phosphorylated in vitro by CDK1-Cyclin B
Turning to B2, the binding result in experiment [2] was “binds”.

B3: GST-ID2 wild type (natural protein, UniProt Q02363 1-134, looked up)
chain: MKAFSPVRSVRKNSLSDHSLGISRSKTPVDDPMSLLYNMNDCYSKLKELVPSIPQNKKVSKMEILQHVIDYILDLQIALDSHPTIVSLHHQRPGQNQASRTPLTTLNTDISILSLQASEFPSELMSNDSKALCG
notes: also called GST-ID2 WT; recombinant GST-ID2; source: E. coli BL21(DE3), purified GST fusion, immobilised on glutathione sepharose 4B
B3: the binding result in experiment [2] is reported as “binds”.
